Where no end group is shown, it is not given here. [ ]: non-standard residue; d: D form. pY = N[C@@H](Cc1ccc(OP(=O)(O)O)cc1)C(=O)O
Legend:
[1] = molecular target: T1, Eck (Ephrin A2) pY588 peptide (CLKPLKTpYVD); experiment: pTyr peptide dot blot
T1 construct: also called Eck/EphA2 pTyr peptide
T1 peptide: CLKPLKT[pY]VD

[2] = molecular target: T2, Nck Y105 peptide (CGERLYDLNMPAYVK); experiment: pTyr peptide dot blot
T2 construct: also called unphosphorylated Nck peptide
T2 peptide: CGERLYDLNMPAYVK

[3] = molecular target: T3, FAK pY397 peptide (AVSVSETDDpYAEIIDEEDTYT) (phosphotyrosine at position 10 (pY397)); experiment: pTyr peptide dot blot
T3 construct: also called FAK pTyr peptide
T3 peptide: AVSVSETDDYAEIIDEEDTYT

[4] = molecular target: T4, Eck (Ephrin A2) Y588 peptide (CLKPLKTYVD); experiment: pTyr peptide dot blot
T4 construct: also called unphosphorylated Eck peptide
T4 peptide: CLKPLKTYVD

[5] = molecular target: T5, Nck pY105 peptide (CGERLpYDLNMPAYVK); experiment: pTyr peptide dot blot
T5 construct: also called pTyr (NCK) peptide; pTyr peptide (Nck pY105)
T5 peptide: CGERL[pY]DLNMPAYVK

[6] = molecular target: T6, FLAG-NME1 with 1-pHis, in stably transfected HEK293 cells (UniProt P15531 1-152, limits assumed, 1-phosphohistidine (generated in vivo)); experiment: immunoblot of FLAG-NME1 293 cell lysates
T6 construct: not shown: FLAG tag
Method: Immunoblotting with anti-pHis antibodies: In general, immunoblotting with anti-pHis antibodies was performed with modifications to standard procedures to help preserve pHis for detection. Buffers were adjusted to pH 8-9 to stabilize pHis and methods were modified to avoid heating samples. Protein samples were prepared in pH 8.8 sample buffer (5×=10% SDS, 250 mM Tris-HCl, pH 8.8, 0.02% Bromophenol blue, 50% glycerol, 50 mM EDTA, 500 mM DTT) for electrophoresis. Mammalian whole cell lysates were prepared by rinsing 70-100% confluent 10 cm² dishes twice with 5 ml cold TD buffer (TBS −/−, pH 8). Cells were scraped directly into 2× pH 8.8 sample buffer, incubated on ice and a cup horn sonicator was used (3-5×5 sec bursts) to disrupt cells and shear DNA. Lysates were clarified by centrifugation (14,000×g for 5-15 min at 4° C.) and analyzed immediately using freshly prepared Bis-Tris polyacrylamide minigels with a modified, pH 8.8 stacking gel and either 10% or 12.5% resolving gels. Electrophoresis buffer recipes were as follows: Running Buffer: (1×20 L, pH 8.5) 20 g SDS, 60 g Trizma Base, 288 g glycine, dH₂0 to 20 L, Transfer Buffer: (1×4 L, pH 8.5) 56.7 g glycine, 4 g SDS, 12 g Trizma Base, 800 ml MeOH, dH₂0 to 4 L. All electrophoresis steps were performed at 4° C. and samples were resolved at 90-100V for 2-3 hr. […]

Measured: binding result

T6 sequence (P15531 whole entry): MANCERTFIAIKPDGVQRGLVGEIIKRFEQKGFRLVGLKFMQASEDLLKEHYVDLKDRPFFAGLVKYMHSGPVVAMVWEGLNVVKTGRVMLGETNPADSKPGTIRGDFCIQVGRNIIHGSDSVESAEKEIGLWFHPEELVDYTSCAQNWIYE

B1: 3-pHis mAb SC39-4 (antibody, V domains shown)
VH: ESGGRLVTPGGSLTLTCTVSGFSLSRYNMGWVRQAPGKGLEWIGWIPFRGSLKYATWATGRFTISRTSTTVDLRMTGLTAADTATYFCVRSSDGFDLWGPGTLVTVSS
VL: QFVMTQTPASVEAVVGGTVTIKCQASRDTGDGLIWYQQKPGQPPKRLIYKASTVASGVPSRFKGRGSGTDFTLTISDLECADAATYYCHSNFYNRWTYGNAFGGGTEVVVKG
notes: Rabbit hybridoma monoclonal IgG; also called anti-3-pHis mAb SC39-4; SC39s (subclones of MC39)
no binding: all assays above

— US20170210824A1 (SALK INSTITUTE FOR BIOLOGICAL STUDIES, published 2017)
